# T1: human FcγRIIB α subunit extracellular domain-6His-GST fusion (human, UniProt P31994 43-217)
# T1 construct: not shown: glutathione S-transferase (GST)
# T1 sequence: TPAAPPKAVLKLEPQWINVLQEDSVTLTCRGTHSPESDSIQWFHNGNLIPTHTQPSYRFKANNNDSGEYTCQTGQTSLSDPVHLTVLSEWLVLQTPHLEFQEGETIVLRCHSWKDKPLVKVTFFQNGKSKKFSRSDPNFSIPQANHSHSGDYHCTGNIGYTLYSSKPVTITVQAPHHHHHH
# T2: human FcγRIIA-R131 α subunit extracellular domain-6His-GST fusion (human, UniProt P12318 34-217)
# T2 construct: also called FcγRIIA-Arg131; not shown: glutathione S-transferase (GST)
# T2 sequence: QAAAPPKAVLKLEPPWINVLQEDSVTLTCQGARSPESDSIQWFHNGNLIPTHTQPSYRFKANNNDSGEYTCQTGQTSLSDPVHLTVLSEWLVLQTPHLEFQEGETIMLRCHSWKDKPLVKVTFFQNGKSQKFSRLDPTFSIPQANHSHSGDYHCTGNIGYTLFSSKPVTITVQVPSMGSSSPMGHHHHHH
# B1: E27 IgG1 variant K334(353)G (antibody)
# heavy: not shown
# light: DIQLTQSPSSLSASVGDRVTITCRASKPVDGEGDSYLNWYQQKPGKAPKLLIYAASYLESGVPSRFSGSGSGTDFTLTISSLQPEDFATYYCQQSHEDPYTFGQGTKVEIKRTVAAPSVFIFPPSDEQLKSGTASVVCLLNNFYPREAKVQWKVDNALQSGNSQESVTEQDSKDSTYSLSSTLTLSKADYEKHKVYACEVTHQGLSSPVTKSFNRGEC
# notes: also called IG2 179
# B2: E27 IgG1 variant K274(287)Q (antibody)
# heavy: not shown
# light: B1 light
# B3: E27 IgG1 variant E293(310)Q (antibody)
# heavy: not shown
# light: B1 light
# B4: E27 IgG1 variant A327(346)G (antibody)
# heavy: not shown
# light: B1 light
# B5: E27 IgG1 variant E333(352)S (antibody)
# heavy: not shown
# light: B1 light
# notes: also called IG2 143
# B6: E27 IgG1 variant E294(311)D (antibody)
# heavy: not shown
# light: B1 light
# notes: also called IG2 174
# B7: E27 IgG1 variant E333(352)Q (antibody)
# heavy: not shown
# light: B1 light
# B8: E27 IgG1 variant H268(281)Y (antibody)
# heavy: not shown
# light: B1 light
# notes: also called IG2 87
# B9: E27 IgG1 variant E269(282)D (antibody)
# heavy: not shown
# light: B1 light
# B10: E27 IgG1 variant E269(282)Q (antibody)
# heavy: not shown
# light: B1 light
# notes: also called IG2 169
# B11: E27 IgG1 variant E333(352)R (antibody)
# heavy: not shown
# light: B1 light
# B12: E27 IgG1 variant D270(283)N (antibody)
# heavy: not shown
# light: B1 light
# notes: also called IG2 92
# B13: E27 IgG1 variant E293(310)D (antibody)
# heavy: not shown
# light: B1 light
# B14: E27 IgG1 variant H268(281)S (antibody)
# heavy: not shown
# light: B1 light
# notes: also called IG2 85
# B15: E27 IgG1 variant A330(349)D (antibody)
# heavy: not shown
# light: B1 light
# B16: E27 IgG1 variant E333(352)K (antibody)
# heavy: not shown
# light: B1 light
# B17: E27 IgG1 variant A327(346)S (antibody)
# heavy: not shown
# light: B1 light
# B18: E27 IgG1 variant E272(285)N (antibody)
# heavy: not shown
# light: B1 light
# notes: also called IG2 224
# B19: E27 IgG1 variant E333(352)D (antibody)
# heavy: not shown
# light: B1 light
# B20: E27 IgG1 variant D265(278)E (antibody)
# heavy: not shown
# light: B1 light
# notes: also called IG2 158
# B21: E27 IgG1 variant E283(300)N (antibody)
# heavy: not shown
# light: B1 light
# notes: also called IG2 228
# B22: E27 IgG1 variant D249(262)E (antibody)
# heavy: not shown
# light: B1 light
# notes: also called IG2 222
# B23: E27 IgG1 variant E283(300)D (antibody)
# heavy: not shown
# light: B1 light
# B24: E27 IgG1 variant D265(278)N (antibody)
# heavy: not shown
# light: B1 light
# B25: E27 IgG1 variant K290(307)Q (antibody)
# heavy: not shown
# light: B1 light
# notes: also called IG2 73
# B26: E27 IgG1 variant E283(300)S (antibody)
# heavy: not shown
# light: B1 light
# notes: also called IG2 227
# B27: E27 IgG1 variant D280(295)N (antibody)
# heavy: not shown
# light: B1 light
# notes: also called IG2 79
# B28: E27 IgG1 variant A330(349)K (antibody)
# heavy: not shown
# light: B1 light
# notes: also called IG2 197
# B29: E27 IgG1 variant E318(337)K (antibody)
# heavy: not shown
# light: B1 light
# B30: E27 IgG1 variant E333(352)N (antibody)
# heavy: not shown
# light: B1 light
# B31: E27 IgG1 variant E272(285)Q (antibody)
# heavy: not shown
# light: B1 light
# notes: also called IG2 223
# B32: E27 IgG1 variant K290(307)G (antibody)
# heavy: not shown
# light: B1 light
# notes: also called IG2 177
# B33: E27 IgG1 variant E294(311)Q (antibody)
# heavy: not shown
# light: B1 light
# notes: also called IG2 173
# B34: E27 IgG1 variant E283(300)Q (antibody)
# heavy: not shown
# light: B1 light
# notes: also called IG2 226
# B35: E27 IgG1 variant E333(352)G (antibody)
# heavy: not shown
# light: B1 light
# notes: also called IG2 178
# B36: E27 IgG1 variant D270(283)E (antibody)
# heavy: not shown
# light: B1 light
# notes: also called IG2 93
# B37: E27 IgG1 variant H268(281)N (antibody)
# heavy: not shown
# light: B1 light
# notes: also called IG2 84
# B38: E27 IgG1 variant D280(295)S (antibody)
# heavy: not shown
# light: B1 light
# B39: E27 IgG1 variant E293(310)K (antibody)
# heavy: not shown
# light: B1 light
# B40: E27 IgG1 variant S267(280)T (antibody)
# heavy: not shown
# light: B1 light
# Target: T3, human FcγRIIIA-F158 α subunit extracellular domain-6His-GST fusion (human, UniProt P08637 17-208)
# T3 construct: also called FcγRIIIA-Phe158; not shown: glutathione S-transferase (GST)
# T3 sequence (P08637 other isoform, or with tags, fused parts or gaps, form in doubt): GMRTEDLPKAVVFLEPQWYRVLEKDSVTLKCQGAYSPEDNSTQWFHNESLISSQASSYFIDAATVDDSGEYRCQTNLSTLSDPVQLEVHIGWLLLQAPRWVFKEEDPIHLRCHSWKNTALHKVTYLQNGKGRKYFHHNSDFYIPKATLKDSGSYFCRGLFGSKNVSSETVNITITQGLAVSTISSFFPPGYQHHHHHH
# Assay: ELISA, IgG:IgE hexamers on receptor-GST
row,ratio to native IgG1,Binder
1,0.88,B1
2,0.62,B2
3,0.99,B3
4,0.36,B4
5,0.94,B5
6,0.14,B6
7,1.05,B7
8,0.76,B8
9,1.13,B9
10,0.28,B10
11,0.84,B11
12,0.04,B12
13,0.37,B13
14,0.81,B14
15,0.07,B15
16,0.85,B16
17,0.06,B17
18,0.5,B18
19,1.26,B19
20,0.02,B20

row,ratio to native IgG1,Binder
1,0.94,B21
2,0.84,B22
3,0.95,B23
4,0.02,B24
5,1.4,B25
6,0.85,B26
7,1.16,B27
8,1.28,B28
9,0.72,B29
10,0.56,B30
11,0.82,B31
12,1.23,B32
13,0.84,B33
14,1.19,B34
15,1.05,B35
16,0.9,B36
17,0.56,B37
18,1.09,B38
19,0.72,B39

# Target: T1, human FcγRIIB α subunit extracellular …
# Assay: ELISA, IgG:IgE hexamers on receptor-GST
row,ratio to native IgG1,Binder
1,0.6,B1
2,0.94,B2
3,0.77,B3
4,0.83,B4
5,0.26,B6
6,0.64,B7
7,1.29,B8
8,0.73,B9
9,0.16,B10
10,0.66,B11
11,0.05,B12
12,0.88,B13
13,1.38,B14
14,0.08,B15
15,0.22,B17
16,0.23,B18
17,0.03,B20
18,1.28,B21
19,0.99,B22

row,ratio to native IgG1,Binder
1,1.23,B23
2,0.03,B24
3,1.26,B25
4,1.07,B26
5,1.22,B27
6,1.25,B28
7,1.08,B29
8,0.52,B30
9,1.81,B31
10,0.45,B40
11,1.21,B32
12,0.95,B33
13,1.24,B34
14,0.76,B35
15,0.06,B36
16,1.41,B37
17,1.04,B38
18,1.31,B39

# Target: T2, human FcγRIIA-R131 α subunit …
# Assay: ELISA, IgG:IgE hexamers on receptor-GST
row,ratio to native IgG1,Binder
1,0.76,B1
2,0.86,B2
3,0.85,B3
4,0.92,B4
5,0.37,B6
6,0.7,B7
7,1.19,B8
8,0.89,B9
9,0.08,B10
10,0.75,B11
11,0.03,B12
12,0.9,B13
13,1.35,B14
14,0.18,B15
15,0.23,B17
16,0.43,B18
17,0.11,B20
18,1.18,B21
19,0.97,B22

row,ratio to native IgG1,Binder
1,1.14,B23
2,0.02,B24
3,1.17,B25
4,1.03,B26
5,1.07,B27
6,1.28,B28
7,1.03,B29
8,0.59,B30
9,1.93,B31
10,0.42,B40
11,1.07,B32
12,1.01,B33
13,1.12,B34
14,0.87,B35
15,0.08,B36
16,1.33,B37
17,1.07,B38
18,1.13,B39
